Source: EP4695300A2 (dated 2026)
Numbering of substitutions follows the chain as printed. Each block holds one binder with its values, some of them ahead of it.

What was measured:
[1] = target: T1, PTGFRN as used in the Octet / BLI affinity measurement (UniProt Q9P2B2 26-832, limits assumed); assay: Bi-Layer Interferometry (BLI), Octet Red96
T1 sequence (looked up): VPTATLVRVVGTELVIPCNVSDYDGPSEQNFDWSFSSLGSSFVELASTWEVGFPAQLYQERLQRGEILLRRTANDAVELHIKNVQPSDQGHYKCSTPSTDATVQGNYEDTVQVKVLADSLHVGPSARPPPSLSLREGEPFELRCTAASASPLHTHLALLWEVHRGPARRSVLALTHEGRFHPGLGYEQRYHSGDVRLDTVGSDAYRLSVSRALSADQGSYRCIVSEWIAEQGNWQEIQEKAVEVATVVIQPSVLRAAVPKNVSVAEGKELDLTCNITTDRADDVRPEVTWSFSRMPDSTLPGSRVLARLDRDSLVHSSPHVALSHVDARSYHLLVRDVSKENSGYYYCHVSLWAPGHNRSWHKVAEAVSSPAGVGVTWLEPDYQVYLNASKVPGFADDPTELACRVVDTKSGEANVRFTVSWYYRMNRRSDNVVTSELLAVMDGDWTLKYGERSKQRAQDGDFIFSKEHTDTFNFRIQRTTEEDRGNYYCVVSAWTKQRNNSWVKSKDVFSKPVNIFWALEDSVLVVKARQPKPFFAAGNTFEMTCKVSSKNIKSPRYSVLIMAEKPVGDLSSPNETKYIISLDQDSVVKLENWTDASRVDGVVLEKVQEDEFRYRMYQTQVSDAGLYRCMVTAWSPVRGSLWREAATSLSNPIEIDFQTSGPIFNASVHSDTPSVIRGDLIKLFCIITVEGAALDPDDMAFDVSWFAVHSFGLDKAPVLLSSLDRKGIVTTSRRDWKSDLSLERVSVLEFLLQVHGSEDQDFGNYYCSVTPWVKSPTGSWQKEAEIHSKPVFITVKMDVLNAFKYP

[2] = target: T2, Prostaglandin F2 Receptor Inhibitor (PTGFRN), expressed by cells (human, UniProt Q9P2B2 26-879); assay: flow binding on cells
T2 construct: whole, on cells; Also used for the endogenous protein in Brij-O10 cell lysates in the co-immunoprecipitation experiments; also called cell surface PTGFRN; prostaglandin F2 receptor negative regulator
T2 sequence (looked up): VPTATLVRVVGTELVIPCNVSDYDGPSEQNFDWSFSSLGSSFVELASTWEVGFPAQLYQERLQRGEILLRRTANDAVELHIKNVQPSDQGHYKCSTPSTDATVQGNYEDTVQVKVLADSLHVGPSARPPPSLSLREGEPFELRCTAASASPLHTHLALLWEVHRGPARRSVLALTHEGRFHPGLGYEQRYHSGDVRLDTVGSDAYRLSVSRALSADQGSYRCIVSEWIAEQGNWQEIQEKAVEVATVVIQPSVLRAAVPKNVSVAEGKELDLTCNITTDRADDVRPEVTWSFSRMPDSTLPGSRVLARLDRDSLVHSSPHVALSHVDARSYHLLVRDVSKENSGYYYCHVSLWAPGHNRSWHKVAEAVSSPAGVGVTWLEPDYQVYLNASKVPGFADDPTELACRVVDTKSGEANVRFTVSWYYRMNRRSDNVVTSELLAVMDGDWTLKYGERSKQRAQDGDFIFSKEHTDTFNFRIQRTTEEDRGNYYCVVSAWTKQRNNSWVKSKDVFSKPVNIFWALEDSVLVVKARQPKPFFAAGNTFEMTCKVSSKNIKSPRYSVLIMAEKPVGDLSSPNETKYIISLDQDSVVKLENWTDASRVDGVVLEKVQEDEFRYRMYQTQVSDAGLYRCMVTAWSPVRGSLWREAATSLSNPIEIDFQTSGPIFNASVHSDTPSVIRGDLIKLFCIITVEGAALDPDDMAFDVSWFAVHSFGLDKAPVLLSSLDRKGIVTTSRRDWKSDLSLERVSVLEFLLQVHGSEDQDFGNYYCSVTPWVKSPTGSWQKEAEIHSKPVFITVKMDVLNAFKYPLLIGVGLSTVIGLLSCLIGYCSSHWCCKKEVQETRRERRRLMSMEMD

[3] = target: T1, PTGFRN as used in the Octet / BLI …; assay: Octet method

Kd [1]: 0.001 nM
B1: fully human anti-PTGFRN monoclonal antibody 8C7 (antibody, V domains shown)
VH: QLQLQESGPGLVKPSETLSLTCTVSGGSISSSSYYWGWIRQPPGKGLEWIGSIYYGGSTYYNPSLKSRVTISVDTSTNQFSLKLNSVTAADTAVYYCARQGLGSFDCWGQGTLVTVSS
VL: DVVMTQSPLSLPVTLGQPASISCRSSQSLVHSDGNTYLNWFQQRPGQSPRRLIYKVSNRDSGVPDRFSGSGSGTDFTLKISGVEAEDVGIYYCMQGTHWPPLTFGGGTKVEIK
notes: also called anti-PTGFRN antibody 8C7; internalizing anti-PTGFRN 8C7

binding result [2]: binds
B2: fully human anti-PTGFRN monoclonal antibody 6B2 (antibody, IgG1, V domains shown)
VH: B1 VH with G37D, S52T, T77K, Q100G, G101N, L102S, G103Y, S104G, F105L, C107Y
VL: B1 VL with T36M, G82R, G96S, L102V, G106Q, V110L

Kd [3]: 5.2 nM
B3: fully human anti-PTGFRN monoclonal antibody 4F8 (antibody, IgG4, V domains shown)
VH: EVQLVESGEGLVQPGRSLRLSCAASGFTFDDYAMHWVRQAPGKGLEWVSGISWDSGRIGYADSVKGRFTISRDNAKNSLYLQMNSLRAEDTALYYCAKDRGGGNWNYYYYGMDVWGQGTTVTVSS
VL: DIQMTQSPSSLSASVGDRVTITCRASQGISNYLAWFQQKPGKAPKSLIYAASSLQSGVPSKFSGSGSGTDFTLTISSLQPEDFATYYCQQYNSFPFTFGPGTKVDIK

binding result [2]: binds
B4: fully human anti-PTGFRN monoclonal antibody 12D8 (antibody, IgG1, V domains shown)
VH: EVQLVESGGGLVQPGRSLRLSCAASGFTFDDYAMHWVRQAPGKGLEWVSGISWSSGSLGYEDSVKGRFTISRDNAKKTLYLQMNSLRAEDTALYYCAKDMGFGDFLYYYGMDVWGQGTTVTVSS
VL: EIVLTQSPGTLSLSPGERATLSCRASQSVSSSYLTWYQQKPGQAPRLLIYGASSRATGIPDRFSGSGSGTDFTLTIRRLEPEDFAVYYCQQYGDSPPWTFGQGTKVEIK
